This is an account of results in the supplement of paper PMC9233669.

Variants at the floor of the assay were thinned out.

One data set has as its system biotinyl-Leu-oxazolone. Put plainly: self-aminoacylation, catalytic enhancement (BLO) (fold over background); higher = more active; k-Seq, kA / k0A0; sequences stand for … in GGGAAUGGAUCCACAUCUACGAAUUC…UUCACUGCAGACUUGACGAAGCUG
The method in brief:
(§1)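 Mutagenized RNA pools with a 21-nt variable region (0.43 μM) were reacted with each biotinyl-aminoacyl-oxazolone at 2–1250 μM for 90 minutes at room temperature, in 50 μL HEPES/NaCl/KCl/MgCl2/CaCl2 buffer containing 5% acetonitrile at pH 6.9–7.0. RNA captured on streptavidin was quantified by triplicate qPCR and by Illumina sequencing. The fraction reacted for each sequence was fit to a pseudo-first-order model with bootstrapping, and catalytic enhancement is the median kA divided by the uncatalyzed rate, taken as the low-activity peak of a bimodal Gaussian fit.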

Another data set deals with biotinyl-Phe-oxazolone. In words: self-aminoacylation, catalytic enhancement (BFO) (fold over background); higher = more active; k-Seq, kA / k0A0; sequences stand for … in GGGAAUGGAUCCACAUCUACGAAUUC…UUCACUGCAGACUUGACGAAGCUG
The gist of the method: as §1

In a further data set the test system is biotinyl-Trp-oxazolone. In words: self-aminoacylation, catalytic enhancement (BWO) (fold over background); higher = more active; k-Seq, kA / k0A0; sequences stand for … in GGGAAUGGAUCCACAUCUACGAAUUC…UUCACUGCAGACUUGACGAAGCUG
The gist of the method:
as §1

Consider “AAGUUAGCUAAAAGUCGCAAG [Fam3.1 aminoacylation ribozyme variant]”, for which the self-aminoacylation in the data set on biotinyl-Leu-oxazolone was 2.01; with biotinyl-Phe-oxazolone it was 2.41.

Consider “AAGUUGGCUAAUUGUCGCAAG [Fam3.1 aminoacylation ribozyme variant]”, for which the self-aminoacylation was 2.41 in the data set on biotinyl-Leu-oxazolone, 2.94 in the data set with biotinyl-Phe-oxazolone and 2.71 in the data set on biotinyl-Trp-oxazolone.

On to “ACCUUUGCUAAUAGUCGCAAG [Fam3.1 aminoacylation ribozyme variant]”, for which the self-aminoacylation in the data set on biotinyl-Leu-oxazolone was 2.31; in the data set with biotinyl-Phe-oxazolone it was 2.02; with biotinyl-Trp-oxazolone it was 2.06.

Consider “AUUACCCUGGUCAUCGUGCGA [Fam2.1 aminoacylation ribozyme variant]”, for which the self-aminoacylation turned out to be 2.14 in the data set with biotinyl-Leu-oxazolone, 9.74 in the data set with biotinyl-Phe-oxazolone and 2.28 with biotinyl-Trp-oxazolone.

Consider “AUUACCCUGGUCGUCGAGCGA [Fam2.1 aminoacylation ribozyme variant]”, for which the values for the self-aminoacylation in the data set on biotinyl-Leu-oxazolone and in the data set with biotinyl-Phe-oxazolone were 2.17 and 3.35, respectively.

Regarding “AUUCACAUAGGUCGUCGGGUG [Fam2.2 aminoacylation ribozyme variant]”, the self-aminoacylation with biotinyl-Leu-oxazolone was 2.07; with biotinyl-Phe-oxazolone it was 7.92.

Consider “AUUCACCUAGUUCAUCGGGGG [Fam2.2 aminoacylation ribozyme variant]”, for which the values for the self-aminoacylation in the data set with biotinyl-Leu-oxazolone and in the data set on biotinyl-Phe-oxazolone were 2.23 and 6.17, respectively.

As to “AUUCACUUAGGUCAUAGGGUG [Fam2.2 aminoacylation ribozyme variant]”, the results for the self-aminoacylation in the data set on biotinyl-Leu-oxazolone and in the data set with biotinyl-Phe-oxazolone were 2.08 and 3.24, respectively.

Regarding “CAACUUCAAACAAUCGGUCUG [Fam1A.1 aminoacylation ribozyme variant]”, the self-aminoacylation is 2.61 in the data set on biotinyl-Leu-oxazolone, 97.7 in the data set with biotinyl-Phe-oxazolone and 44.8 with biotinyl-Trp-oxazolone.

As to “CACCUUCAAACAAUCGGUCUG [Fam1A.1 aminoacylation ribozyme variant]”, the self-aminoacylation with biotinyl-Leu-oxazolone was 2.61; in the data set on biotinyl-Phe-oxazolone it was 98.1; with biotinyl-Trp-oxazolone it was 43.9.

Regarding “CAGUUUGCUAAUAGUCGCAUG [Fam3.1 aminoacylation ribozyme variant]”, the self-aminoacylation came to 2.08 in the data set with biotinyl-Leu-oxazolone, 2.84 in the data set with biotinyl-Phe-oxazolone and 2.07 in the data set on biotinyl-Trp-oxazolone.

With “CCACACUUCAGCCAAUCGGUC [Fam1B.1 aminoacylation ribozyme variant]”, the self-aminoacylation was 2.27 with biotinyl-Leu-oxazolone and 2.11 in the data set on biotinyl-Trp-oxazolone.

In the case of “CCACUUCAAACAAUCGGUCUU [Fam1A.1 aminoacylation ribozyme variant]”, the self-aminoacylation in the data set with biotinyl-Leu-oxazolone amounted to 2.11; in the data set with biotinyl-Phe-oxazolone, 40.9; with biotinyl-Trp-oxazolone it was 25.2.

Regarding “CCCCACUUCAAUCAAUCGGUC [Fam1B.1 aminoacylation ribozyme variant]”, the figures for the self-aminoacylation with biotinyl-Leu-oxazolone, with biotinyl-Phe-oxazolone and in the data set on biotinyl-Trp-oxazolone were 2.28, 37.1 and 31, respectively.

For “CGACUUCAAACAAUCGGUCUA [Fam1A.1 aminoacylation ribozyme variant]”, the self-aminoacylation was found to be 12.7 with biotinyl-Phe-oxazolone and 6.02 in the data set with biotinyl-Trp-oxazolone.

Take “CUACACUUCAAGCAAUCGGUC [Fam1B.1 aminoacylation ribozyme variant]”: the self-aminoacylation with biotinyl-Phe-oxazolone came out at 54.5; with biotinyl-Trp-oxazolone, 22.8.

Take “CUACACUUCAAUCAAUCGGUC [Fam1B.1 aminoacylation ribozyme variant]”: the self-aminoacylation with biotinyl-Phe-oxazolone came to 37.4; in the data set with biotinyl-Trp-oxazolone, 18.5.

For “CUACAGUUCAAGCAAUCGGUC [Fam1B.1 aminoacylation ribozyme variant]”, the self-aminoacylation in the data set on biotinyl-Phe-oxazolone stood at 4.84; with biotinyl-Trp-oxazolone it was 2.96.

As to “CUACUUACAACAAUCGGUCUG [Fam1A.1 aminoacylation ribozyme variant]”, the self-aminoacylation with biotinyl-Phe-oxazolone was found to be 3.29; in the data set on biotinyl-Trp-oxazolone it was 2.34.

For the sequence “CUACUUCAAACAAUCGGUCAC [Fam1A.1 aminoacylation ribozyme variant]”, the self-aminoacylation in the data set with biotinyl-Phe-oxazolone stood at 23.1; with biotinyl-Trp-oxazolone it was 8.51.

On to “CUACUUCAAACAAUCGGUCAG [Fam1A.1 aminoacylation ribozyme variant]”, for which the self-aminoacylation in the data set with biotinyl-Phe-oxazolone turned out to be 16.7; with biotinyl-Trp-oxazolone, 7.09.

“CUACUUCAAACAAUCGGUCGU [Fam1A.1 aminoacylation ribozyme variant]”: the self-aminoacylation came to 16.3 in the data set on biotinyl-Phe-oxazolone and 10.3 with biotinyl-Trp-oxazolone.

Take “CUACUUCAAACAAUCGGUCUU [Fam1A.1 aminoacylation ribozyme variant]”: the self-aminoacylation is 31.2 in the data set on biotinyl-Phe-oxazolone and 15.3 with biotinyl-Trp-oxazolone.

“CUACUUCAAACAAUCGGUUUC [Fam1A.1 aminoacylation ribozyme variant]”: the self-aminoacylation in the data set on biotinyl-Phe-oxazolone came out at 4.72; in the data set on biotinyl-Trp-oxazolone it was 2.18.

As to “CUACUUCAAACAAUCUCUCUG [Fam1A.1 aminoacylation ribozyme variant]”, the self-aminoacylation in the data set with biotinyl-Phe-oxazolone is 10.1; with biotinyl-Trp-oxazolone it was 4.21.

“CUACUUCAAAUAAUCGGUUUG [Fam1A.1 aminoacylation ribozyme variant]”: the self-aminoacylation was determined as 16 with biotinyl-Phe-oxazolone and 8.58 in the data set on biotinyl-Trp-oxazolone.

Take “CUACUUCAACCAAUCGGUUUG [Fam1A.1 aminoacylation ribozyme variant]”: the results for the self-aminoacylation in the data set with biotinyl-Phe-oxazolone and with biotinyl-Trp-oxazolone were 17 and 10.8, respectively.

“CUAGUUCAAACAAUCGGUCUG [Fam1A.1 aminoacylation ribozyme variant]”: the self-aminoacylation was determined as 11 in the data set on biotinyl-Phe-oxazolone and 6.47 with biotinyl-Trp-oxazolone.

On to “CUAGUUCAAACAAUCGGUUUG [Fam1A.1 aminoacylation ribozyme variant]”, for which the self-aminoacylation in the data set on biotinyl-Phe-oxazolone was found to be 4.59; with biotinyl-Trp-oxazolone, 3.41.

“CUAGUUCAAUCAAUCGGUCUG [Fam1A.1 aminoacylation ribozyme variant]”: the self-aminoacylation was found to be 3.97 in the data set with biotinyl-Phe-oxazolone and 2.63 in the data set on biotinyl-Trp-oxazolone.

Take “CUAGUUCCAACAAUCGGUCUG [Fam1A.1 aminoacylation ribozyme variant]”: the self-aminoacylation in the data set with biotinyl-Phe-oxazolone came out at 9.79; in the data set with biotinyl-Trp-oxazolone, 9.72.

With “CUCCCUCAAACAAUCGGUCUG [Fam1A.1 aminoacylation ribozyme variant]”, the self-aminoacylation in the data set on biotinyl-Phe-oxazolone turned out to be 3.26; with biotinyl-Trp-oxazolone it was 3.48.

Consider “CUCCUUCAAAGAAUCGGUCUG [Fam1A.1 aminoacylation ribozyme variant]”, for which the self-aminoacylation worked out at 6.59 in the data set with biotinyl-Phe-oxazolone and 5.66 in the data set on biotinyl-Trp-oxazolone.

For “CUGGUUCAAACAAUCGGUCUG [Fam1A.1 aminoacylation ribozyme variant]”, the self-aminoacylation in the data set with biotinyl-Phe-oxazolone was determined as 14; with biotinyl-Trp-oxazolone, 9.11.

On to “CUUCUUCAAACAAUCGGUCUA [Fam1A.1 aminoacylation ribozyme variant]”, for which the results for the self-aminoacylation in the data set with biotinyl-Phe-oxazolone and in the data set with biotinyl-Trp-oxazolone were 11.4 and 4.8, respectively.

“GCACACUUCAAGCAAUCAGUC [Fam1B.1 aminoacylation ribozyme variant]”: the self-aminoacylation amounted to 9.69 with biotinyl-Phe-oxazolone and 4.94 in the data set with biotinyl-Trp-oxazolone.

On to “GCACACUUCAAGCAAUCGGUC [Fam1B.1 aminoacylation ribozyme variant]”, for which the self-aminoacylation stood at 32.3 in the data set on biotinyl-Phe-oxazolone and 19.8 in the data set with biotinyl-Trp-oxazolone.

With “GCACAUUUCAAGCAAUCGGUC [Fam1B.1 aminoacylation ribozyme variant]”, the self-aminoacylation in the data set on biotinyl-Phe-oxazolone is 3.69; with biotinyl-Trp-oxazolone it was 3.16.

Consider “GUACUUCAAACAAUCGGUCCG [Fam1A.1 aminoacylation ribozyme variant]”, for which the results for the self-aminoacylation in the data set with biotinyl-Phe-oxazolone and in the data set on biotinyl-Trp-oxazolone were 6.11 and 3.6, respectively.

Consider “UAGUUUGCUAAUAGUCGGAAG [Fam3.1 aminoacylation ribozyme variant]”, for which the self-aminoacylation with biotinyl-Phe-oxazolone was determined as 6.04; in the data set on biotinyl-Trp-oxazolone, 2.37.

As to “UAGUUUGCUAAUAGUCGUAAG [Fam3.1 aminoacylation ribozyme variant]”, the self-aminoacylation with biotinyl-Phe-oxazolone came to 17.9; with biotinyl-Trp-oxazolone, 4.18.

As to “UAGUUUGUUAAUAGUCGCAAG [Fam3.1 aminoacylation ribozyme variant]”, the self-aminoacylation in the data set on biotinyl-Leu-oxazolone amounted to 2.05; in the data set on biotinyl-Phe-oxazolone it was 3.23.

Turning to “UCACACUUCAAGGAAUCGGUC [Fam1B.1 aminoacylation ribozyme variant]”, the self-aminoacylation was 5.43 in the data set on biotinyl-Phe-oxazolone and 3.91 in the data set on biotinyl-Trp-oxazolone.

In the case of “UCAUACUUCAAGCAAUCGGUC [Fam1B.1 aminoacylation ribozyme variant]”, the results for the self-aminoacylation in the data set on biotinyl-Phe-oxazolone and with biotinyl-Trp-oxazolone were 16.9 and 9.74, respectively.

On to “UUAAUUCAAACAAUCGGUCUG [Fam1A.1 aminoacylation ribozyme variant]”, for which the self-aminoacylation with biotinyl-Phe-oxazolone was 3.57; with biotinyl-Trp-oxazolone, 2.47.

For “UUACUUCAAACAAUCAGUCUG [Fam1A.1 aminoacylation ribozyme variant]”, the values for the self-aminoacylation with biotinyl-Phe-oxazolone and with biotinyl-Trp-oxazolone were 20.1 and 9.66, respectively.

“UUACUUCAAACAAUCGGUCUA [Fam1A.1 aminoacylation ribozyme variant]”: the self-aminoacylation in the data set on biotinyl-Phe-oxazolone turned out to be 6.02; with biotinyl-Trp-oxazolone, 2.61.

Consider “UUACUUCAAAUAAUCGGUCUG [Fam1A.1 aminoacylation ribozyme variant]”, for which the self-aminoacylation in the data set on biotinyl-Phe-oxazolone was 10.3; in the data set on biotinyl-Trp-oxazolone it was 7.5.

For “UUUCUUCAAACAAUCGGUCUG [Fam1A.1 aminoacylation ribozyme variant]”, the self-aminoacylation in the data set with biotinyl-Phe-oxazolone amounted to 7.67; in the data set with biotinyl-Trp-oxazolone, 5.16.
